Changes are numbered by the printed parent chain. Names may count otherwise. One block for each binder: values may come before it.
Assays:
[1] = target: T1, Anterior Gradient-2 (AGR2/PDIA17), AGR2 (21-175), 6x-His tag removed (human, UniProt O95994)
[2] = target: T1, Anterior Gradient-2 (AGR2/PDIA17), AGR2 …; assay: ELISA; MaxiSorp plates coated with 1 µg AGR2 (wild type or mutant), PDI, TXN or BSA; varying MAb in 50 mM Tris, 140 mM NaCl, 1% BSA, 0.05% Tween 20, pH 8.0, 1 h at 37 °C; detection with Protein L-peroxidase; settings: both partners purified
[3] = target: T2, LY6/PLAUR Domain Containing 3, LYPD3 (31-325) with C-terminal 6x-His tag (UniProt O95274 31-325); assay: ELISA; MaxiSorp plates coated with 1 µg AGR2 (or BSA); varying LYPD3 in 50 mM Tris, 140 mM NaCl, 1% BSA, 0.05% Tween 20, pH 8.0, 1 h at 37 °C; detection with anti-6x-His-peroxidase; settings: both partners purified
T2 construct: LY6/PLAUR Domain Containing 3 (LYPD3, C4.4A), residues 31-325; also called C4.4A; source: expi293F, transfected, secreted, purified from media (HisTrap Excel); not shown: His6, C-terminal, kept
T2 sequence (looked up): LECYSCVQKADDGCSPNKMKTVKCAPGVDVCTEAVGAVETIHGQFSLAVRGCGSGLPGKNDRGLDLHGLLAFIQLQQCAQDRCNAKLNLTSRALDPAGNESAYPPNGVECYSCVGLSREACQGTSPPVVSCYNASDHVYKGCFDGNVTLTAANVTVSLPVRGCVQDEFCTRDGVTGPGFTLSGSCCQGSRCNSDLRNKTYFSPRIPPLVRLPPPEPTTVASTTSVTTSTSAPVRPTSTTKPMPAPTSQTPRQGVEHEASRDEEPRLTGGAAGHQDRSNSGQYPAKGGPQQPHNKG

- binding result [1]: binds
B1: S31R/A53Y/T59P (antibody, V domains shown)
VH: EVQLLESGGGLVQPGGSLRLSCAASGFTFSRYAMSWVRQAPGKGLEWVSGISYQGAHTPYADSVKGRFTISRDNSKNTLYLQMNSLRAEDTAVYYCAKTYKGFDYWGQGTLVTVSS
VL: DIQMTQSPSSLSASVGDRVTITCRASQSISSYLNWYQQKPGKAPKLLIYSASRLQSGVPSRFSGSGSGTDFTLTISSLQPEDFATYYCQQGRRMPPTFGQGTKVEIK

- EC50 [2]: 0.0404 nM
B2: affinity-matured anti-AGR2 MAb S31R/A53Y (VH mutant of MAb-15, human IgG1) (antibody, V domains shown)
VH: B1 VH with P59T
VL: B1 VL
notes: as the VH of m4 (scFv-15) with the stated changes; human IgG1 heavy chain constant region; IgG1; also called anti-AGR2 MAb clone S31R/A53Y; source: expi293F, transfected, purified from media (rProteinA)

- EC50 [2]: 0.156 nM
B3: affinity-matured anti-AGR2 MAb S31R (VH mutant of MAb-15, human IgG1) (antibody, V domains shown)
VH: B1 VH with Y53A, P59T
VL: B1 VL
notes: as the VH of m4 (scFv-15) with the stated change; human IgG1 heavy chain constant region; IgG1; source: expi293F, transfected, purified from media (rProteinA)

- binding result [1]: binds
B4: S31R/A53F/T59P (antibody, V domains shown)
VH: B1 VH with Y53F
VL: B1 VL

- EC50 [2]: 2.03 nM
B5: anti-AGR2 monoclonal antibody MAb-15 (VH-VL of scFv-15 in a full human IgG1 backbone) (antibody, V domains shown)
VH: B1 VH with R31S, Y53A, P59T
VL: B1 VL
notes: VH of scFv-15 (as the VH of m3); human IgG1 heavy chain constant region (full human IgG1 backbone); VL of scFv-15 (as the VL of m3); light chain constant region; IgG1; also called original anti-AGR2 antibody; parent MAb-15; source: expi293F, transfected, purified from media (rProteinA)

- EC50 [2]: 0.0385 nM
B6: affinity-matured anti-AGR2 MAb S31R/A53F (VH mutant of MAb-15, human IgG1) (antibody, V domains shown)
VH: B1 VH with Y53F, P59T
VL: B1 VL
notes: as the VH of m4 (scFv-15) with the stated changes; human IgG1 heavy chain constant region; IgG1; source: expi293F, transfected, purified from media (rProteinA)

- binding result [3]: binds
B7: Anterior Gradient-2 (AGR2/PDIA17), AGR2 (21-175), 6x-His tag removed (natural protein, human, UniProt O95994 21-175, looked up)
chain: RDTTVKPGAKKDTKDSRPKLPQTLSRGWGDQLIWTQTYEEALYKSKTSNKPLMIIHHLDECPHSQALKKVFAENKEIQKLAEQFVLLNLVYETTDKHLSPDGQYVPRIMFVDPSLTVRADITGRYSNRLYAYEPADTALLLDNMKKALKLLKTEL
notes: Anterior Gradient-2 (AGR2/PDIA17), human, residues 21-175; tag removed with 8x-His-TEV; also called rAGR2; recombinant AGR2; source: E. coli BL21(DE3), purified (HisTrap, TEV cleavage, second HisTrap flow-through); not shown: His6, N-terminal, cleaved
